Results taken from PMC8254080 (Biochemistry and Biophysics Reports, 2021).
Read-outs that look alike come from different tables or passages of the source.

Experiments:
cryo-EM structure [1] = biological target: the molecule itself; assay: cryo-EM structure
cryo-EM structure [2] = biological target: the molecule itself; assay: cryo-EM structure; remark: listed apart in the source

| Protein | binding result (cryo-EM structure [1]) | binding result (cryo-EM structure [2]) |
| --- | --- | --- |
| Salmonella PrgI (type 3 needle filament protomer, SPI-1) (natural protein, Salmonella (strain SB905)) MATPWSGYLDDVSAKFDTGVDNLQTQVTEALDKLAAKPSDPALLAAYQSKLSEYNLYRNAQSNTVKVFKDIDAAIIQNFR | binds | – |
| Shigella MxiH (type 3 needle filament protomer) with N-terminal Strep-tag II and factor Xa cleavage site (natural protein, UniProt P0A223 1-83, looked up) MSVTVPNDDWTLSSLSETFDDGTQTLQGELTLALDKLAKNPSNPQLLAEYQSKLSEYTLYRNAQSNTVKVIKDVDAAIIQNFR | – | binds |
